Test results published in publication PMC3170326, “AKAP12 and AKAP5 form higher-order hetero-oligomers” (Journal of Molecular Signaling, 2011).
One block for each molecule: values may come before it.

Columns and labels:
[1] = molecular target: His-tagged AKAP12 (purified, used for steric-exclusion chromatography) (human) (UniProt Q02952); test: SEC; purified His-tagged AKAP5 or AKAP12 alone on HiPrep Sephacryl S-400 HR 16/60, PBS with 0.01% NaN3; fractions analysed by SDS-PAGE and immunoblot; homo-oligomer size from elution position
[2] = molecular target: T1, HA-tagged full-length AKAP5 (human, UniProt P24588 1-427); test: co-IP; anti-HA immunoprecipitation from whole-cell lysates of A431 cells co-expressing an HA-tagged and a GFP-tagged AKAP; cells untreated, treated with 10 uM isoproterenol for 10-30 min, or washed free of agonist for 2 h; immunoblot; conditions: partners not purified
T1 construct: AKAP5 (AKAP79), human, full length; pCMV-HA vector; also called HA-AKAP5; source: A431 cells, transiently transfected, in lysate
T1 sequence (P24588 whole entry): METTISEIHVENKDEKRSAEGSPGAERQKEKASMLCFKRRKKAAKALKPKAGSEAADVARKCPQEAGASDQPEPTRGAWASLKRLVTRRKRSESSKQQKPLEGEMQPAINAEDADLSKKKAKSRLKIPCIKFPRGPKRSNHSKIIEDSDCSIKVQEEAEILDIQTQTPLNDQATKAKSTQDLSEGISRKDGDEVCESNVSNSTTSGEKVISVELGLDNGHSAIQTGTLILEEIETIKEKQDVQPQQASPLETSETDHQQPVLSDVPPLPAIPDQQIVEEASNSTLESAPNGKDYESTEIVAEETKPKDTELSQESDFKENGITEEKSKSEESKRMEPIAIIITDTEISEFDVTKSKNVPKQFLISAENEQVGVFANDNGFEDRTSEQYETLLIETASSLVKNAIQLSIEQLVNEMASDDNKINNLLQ

- stoichiometry N [1]: 4
Molecule: His-tagged AKAP12 (purified, used for steric-exclusion chromatography) (from UniProt Q02952 1-1782) (natural protein)

- fold increase of AKAP12 co-precipitated with AKAP5 after 30 min isoproterenol, over unstimulated cells [2]: 4 fold
B1: GFP-tagged AKAP12 (natural protein, human, UniProt Q02952 1-1782, looked up)
chain: MGAGSSTEQRSPEQPPEGSSTPAEPEPSGGGPSAEAAPDTTADPAIAASDPATKLLQKNGQLSTINGVAEQDELSLQEGDLNGQKGALNGQGALNSQEEEEVIVTEVGQRDSEDVSKRDSDKEMATKSAVVHDITDDGQEETPEIIEQIPSSESNLEELTQPTESQANDIGFKKVFKFVGFKFTVKKDKTEKPDTVQLLTVKKDEGEGAAGAGDHKDPSLGAGEAASKESEPKQSTEKPEETLKREQSHAEISPPAESGQAVEECKEEGEEKQEKEPSKSAESPTSPVTSETGSTFKKFFTQGWAGWRKKTSFRKPKEDEVEASEKKKEQEPEKVDTEEDGKAEVASEKLTASEQAHPQEPAESAHEPRLSAEYEKVELPSEEQVSGSQGPSEEKPAPLATEVFDEKIEVHQEEVVAEVHVSTVEERTEEQKTEVEETAGSVPAEELVEMDAEPQEAEPAKELVKLKETCVSGEDPTQGADLSPDEKVLSKPPEGVVSEVEMLSSQERMKVQGSPLKKLFTSTGLKKLSGKKQKGKRGGGDEESGEHTQVPADSPDSQEEQKGESSASSPEEPEEITCLEKGLAEVQQDGEAEEGATSDGEKKREGVTPWASFKKMVTPKKRVRRPSESDKEDELDKVKSATLSSTESTASEMQEEMKGSVEEPKPEEPKRKVDTSVSWEALICVGSSKKRARRGSSSDEEGGPKAMGGDHQKADEAGKDKETGTDGILAGSQEHDPGQGSSSPEQAGSPTEGEGVSTWESFKRLVTPRKKSKSKLEEKSEDSIAGSGVEHSTPDTEPGKEESWVSIKKFIPGRRKKRPDGKQEQAPVEDAGPTGANEDDSDVPAVVPLSEYDAVEREKMEAQQAQKSAEQPEQKAATEVSKELSESQVHMMAAAVADGTRAATIIEERSPSWISASVTEPLEQVEAEAALLTEEVLEREVIAEEEPPTVTEPLPENREARGDTVVSEAELTPEAVTAAETAGPLGAEEGTEASAAEETTEMVSAVSQLTDSPDTTEEATPVQEVEGGVPDIEEQERRTQEVLQAVAEKVKEESQLPGTGGPEDVLQPVQRAEAERPEEQAEASGLKKETDVVLKVDAQEAKTEPFTQGKVVGQTTPESFEKAPQVTESIESSELVTTCQAETLAGVKSQEMVMEQAIPPDSVETPTDSETDGSTPVADFDAPGTTQKDEIVEIHEENEVASGTQSGGTEAEAVPAQKERPPAPSSFVFQEETKEQSKMEDTLEHTDKEVSVETVSILSKTEGTQEADQYADEKTKDVPFFEGLEGSIDTGITVSREKVTEVALKGEGTEEAECKKDDALELQSHAKSPPSPVEREMVVQVEREKTEAEPTHVNEEKLEHETAVTVSEEVSKQLLQTVNVPIIDGAKEVSSLEGSPPPCLGQEEAVCTKIQVQSSEASFTLTAAAEEEKVLGETANILETGETLEPAGAHLVLEEKSSEKNEDFAAHPGEDAVPTGPDCQAKSTPVIVSATTKKGLSSDLEGEKTTSLKWKSDEVDEQVACQEVKVSVAIEDLEPENGILELETKSSKLVQNIIQTAVDQFVRTEETATEMLTSELQTQAHVIKADSQDAGQETEKEGEEPQASAQDETPITSAKEESESTAVGQAHSDISKDMSEASEKTMTVEVEGSTVNDQQLEEVVLPSEEEGGGAGTKSVPEDDGHALLAERIEKSLVEPKEDEKGDDVDDPENQNSALADTDASGGLTKESPDTNGPKQKEKEDAQEVELQEGKVHSESDKAITPQAQEELQKQERESAKSELTES
notes: AKAP12 (gravin), human, full length; also called AKAP12-GFP; full-length AKAP12; source: A431 cells, stably expressing, in lysate
